In the supplement of paper PMC10065799, “High-throughput profiling of sequence recognition by tyrosine kinases and SH2 domains using bacterial peptide display” (eLife, 2023):

What was measured:
c-Src SH2 = experiment: SH2 binding enrichment of the phosphorylated peptide, bacterial display (enrichment ratio); higher = better substrate or ligand; peptides without Tyr show the background
Grb2 SH2 = Grb2 SH2 (UniProt P62993); experiment: as above
SHP2-C SH2 = experiment: as above
Jak2 = Jak2 (UniProt O60674); experiment: phosphorylation enrichment, bacterial display (enrichment ratio); higher = better substrate or ligand; peptides without Tyr show the background
Jak2, sequence (O60674 whole entry, looked up): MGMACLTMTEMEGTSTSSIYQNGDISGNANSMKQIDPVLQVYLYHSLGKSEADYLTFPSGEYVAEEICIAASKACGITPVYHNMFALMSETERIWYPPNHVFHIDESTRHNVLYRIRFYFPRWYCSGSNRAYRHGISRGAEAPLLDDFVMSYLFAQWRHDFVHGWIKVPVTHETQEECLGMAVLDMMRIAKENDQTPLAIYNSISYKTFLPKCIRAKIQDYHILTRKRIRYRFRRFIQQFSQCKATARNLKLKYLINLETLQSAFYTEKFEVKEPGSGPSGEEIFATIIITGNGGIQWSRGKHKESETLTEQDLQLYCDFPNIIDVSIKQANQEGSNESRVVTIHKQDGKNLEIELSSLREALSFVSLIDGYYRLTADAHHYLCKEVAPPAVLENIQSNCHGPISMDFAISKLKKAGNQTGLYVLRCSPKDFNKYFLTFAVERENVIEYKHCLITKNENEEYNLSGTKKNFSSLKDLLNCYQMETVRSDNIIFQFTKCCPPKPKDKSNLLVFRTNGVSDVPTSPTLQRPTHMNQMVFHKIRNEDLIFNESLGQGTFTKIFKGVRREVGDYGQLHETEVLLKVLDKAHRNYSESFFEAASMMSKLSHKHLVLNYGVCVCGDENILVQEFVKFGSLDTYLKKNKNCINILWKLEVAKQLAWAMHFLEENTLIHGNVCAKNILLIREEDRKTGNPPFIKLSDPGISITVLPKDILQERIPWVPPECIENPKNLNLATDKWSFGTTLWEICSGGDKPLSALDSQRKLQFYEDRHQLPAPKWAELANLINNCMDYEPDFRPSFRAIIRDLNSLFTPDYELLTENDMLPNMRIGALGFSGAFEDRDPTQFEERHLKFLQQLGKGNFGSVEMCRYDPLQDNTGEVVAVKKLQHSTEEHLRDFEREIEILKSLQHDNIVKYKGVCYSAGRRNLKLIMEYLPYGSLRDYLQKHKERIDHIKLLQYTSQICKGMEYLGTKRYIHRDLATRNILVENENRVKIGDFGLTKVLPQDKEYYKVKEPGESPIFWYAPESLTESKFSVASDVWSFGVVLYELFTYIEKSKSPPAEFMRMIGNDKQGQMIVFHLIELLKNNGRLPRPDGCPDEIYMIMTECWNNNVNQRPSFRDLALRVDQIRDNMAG

Fer (mouse) = experiment: as above
Hck = Hck (UniProt P08631); experiment: as above
Hck, sequence (P08631 whole entry, looked up): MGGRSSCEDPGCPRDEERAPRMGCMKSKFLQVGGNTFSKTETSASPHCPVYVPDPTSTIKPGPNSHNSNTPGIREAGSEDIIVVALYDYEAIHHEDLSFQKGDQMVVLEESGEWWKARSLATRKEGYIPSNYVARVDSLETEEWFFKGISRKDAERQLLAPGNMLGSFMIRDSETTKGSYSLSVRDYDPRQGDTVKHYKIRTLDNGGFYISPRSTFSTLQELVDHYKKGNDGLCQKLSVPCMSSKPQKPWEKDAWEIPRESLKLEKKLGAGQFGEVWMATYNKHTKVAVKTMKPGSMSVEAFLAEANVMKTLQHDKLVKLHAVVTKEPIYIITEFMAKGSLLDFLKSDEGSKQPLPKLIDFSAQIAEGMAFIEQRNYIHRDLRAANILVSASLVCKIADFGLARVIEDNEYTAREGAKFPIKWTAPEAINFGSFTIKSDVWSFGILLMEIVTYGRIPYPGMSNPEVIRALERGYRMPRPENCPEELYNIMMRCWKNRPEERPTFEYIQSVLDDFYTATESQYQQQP

FGFR1 = FGFR1 (UniProt P11362); experiment: as above
FGFR1, sequence (P11362 whole entry, looked up): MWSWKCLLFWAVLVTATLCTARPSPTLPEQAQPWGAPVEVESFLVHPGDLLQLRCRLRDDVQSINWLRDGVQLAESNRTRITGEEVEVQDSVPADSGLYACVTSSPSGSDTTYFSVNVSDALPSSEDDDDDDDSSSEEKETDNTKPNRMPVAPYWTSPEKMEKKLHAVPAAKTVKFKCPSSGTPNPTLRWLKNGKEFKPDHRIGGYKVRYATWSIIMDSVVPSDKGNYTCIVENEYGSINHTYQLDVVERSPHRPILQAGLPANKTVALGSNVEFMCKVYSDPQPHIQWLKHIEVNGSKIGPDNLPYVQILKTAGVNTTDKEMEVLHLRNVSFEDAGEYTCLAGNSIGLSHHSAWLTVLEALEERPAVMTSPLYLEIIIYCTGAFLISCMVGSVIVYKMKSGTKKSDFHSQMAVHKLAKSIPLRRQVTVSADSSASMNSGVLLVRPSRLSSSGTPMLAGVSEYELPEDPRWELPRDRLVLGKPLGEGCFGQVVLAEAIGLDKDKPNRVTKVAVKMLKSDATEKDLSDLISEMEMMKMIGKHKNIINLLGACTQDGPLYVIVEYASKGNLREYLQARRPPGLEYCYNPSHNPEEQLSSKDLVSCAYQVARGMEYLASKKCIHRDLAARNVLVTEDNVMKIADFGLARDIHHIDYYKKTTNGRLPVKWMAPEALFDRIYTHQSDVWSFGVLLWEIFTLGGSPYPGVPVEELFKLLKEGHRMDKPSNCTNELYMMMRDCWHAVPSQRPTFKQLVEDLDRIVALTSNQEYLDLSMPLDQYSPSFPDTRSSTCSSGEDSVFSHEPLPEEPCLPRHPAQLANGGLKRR

Fyn = Fyn (UniProt P06241); experiment: as above
Fyn, sequence (P06241 whole entry, looked up): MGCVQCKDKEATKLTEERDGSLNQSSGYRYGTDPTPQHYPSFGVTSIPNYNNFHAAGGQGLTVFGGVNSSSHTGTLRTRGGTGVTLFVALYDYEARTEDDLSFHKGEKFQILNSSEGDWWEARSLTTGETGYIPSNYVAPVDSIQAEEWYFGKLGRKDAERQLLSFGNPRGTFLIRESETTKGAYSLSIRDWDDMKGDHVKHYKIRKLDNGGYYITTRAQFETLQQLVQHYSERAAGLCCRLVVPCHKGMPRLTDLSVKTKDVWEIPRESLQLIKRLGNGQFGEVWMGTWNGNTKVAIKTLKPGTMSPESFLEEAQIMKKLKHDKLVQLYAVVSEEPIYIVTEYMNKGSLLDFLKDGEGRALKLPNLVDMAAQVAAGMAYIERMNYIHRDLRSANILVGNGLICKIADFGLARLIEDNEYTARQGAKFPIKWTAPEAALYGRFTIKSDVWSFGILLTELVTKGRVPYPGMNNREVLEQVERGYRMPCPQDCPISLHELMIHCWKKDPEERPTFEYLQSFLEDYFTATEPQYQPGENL

c-Abl (mouse) = experiment: as above
FGFR3 = FGFR3 (UniProt P22607); experiment: as above
FGFR3, sequence (P22607 whole entry, looked up): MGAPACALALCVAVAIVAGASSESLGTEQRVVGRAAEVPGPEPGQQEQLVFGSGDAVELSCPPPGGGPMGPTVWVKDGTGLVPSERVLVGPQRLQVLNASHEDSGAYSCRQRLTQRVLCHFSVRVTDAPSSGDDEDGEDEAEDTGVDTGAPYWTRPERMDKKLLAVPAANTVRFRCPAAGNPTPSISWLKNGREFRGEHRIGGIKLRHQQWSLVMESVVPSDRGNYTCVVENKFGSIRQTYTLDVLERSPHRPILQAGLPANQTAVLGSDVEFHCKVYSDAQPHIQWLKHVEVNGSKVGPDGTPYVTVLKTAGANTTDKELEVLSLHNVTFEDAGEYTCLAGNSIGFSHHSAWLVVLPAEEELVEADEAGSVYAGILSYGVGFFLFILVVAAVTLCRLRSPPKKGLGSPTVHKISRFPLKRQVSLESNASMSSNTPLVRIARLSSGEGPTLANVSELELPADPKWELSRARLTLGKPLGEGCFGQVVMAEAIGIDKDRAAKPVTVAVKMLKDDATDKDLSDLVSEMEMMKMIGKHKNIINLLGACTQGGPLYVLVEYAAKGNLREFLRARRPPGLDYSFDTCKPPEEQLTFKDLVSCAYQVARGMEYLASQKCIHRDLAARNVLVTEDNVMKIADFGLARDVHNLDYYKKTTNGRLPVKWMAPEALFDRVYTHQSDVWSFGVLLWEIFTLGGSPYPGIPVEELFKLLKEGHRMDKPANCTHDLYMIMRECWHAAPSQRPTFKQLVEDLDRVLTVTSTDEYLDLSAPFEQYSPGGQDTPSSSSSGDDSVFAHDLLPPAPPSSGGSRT

c-Src = experiment: as above
AncSZ = experiment: as above
MERTK = MERTK (UniProt Q12866); experiment: as above
Fes = Fes (UniProt P07332); experiment: as above
EPHB2 = EPHB2 (UniProt P29323); experiment: as above
EPHB2, sequence (P29323 whole entry, looked up): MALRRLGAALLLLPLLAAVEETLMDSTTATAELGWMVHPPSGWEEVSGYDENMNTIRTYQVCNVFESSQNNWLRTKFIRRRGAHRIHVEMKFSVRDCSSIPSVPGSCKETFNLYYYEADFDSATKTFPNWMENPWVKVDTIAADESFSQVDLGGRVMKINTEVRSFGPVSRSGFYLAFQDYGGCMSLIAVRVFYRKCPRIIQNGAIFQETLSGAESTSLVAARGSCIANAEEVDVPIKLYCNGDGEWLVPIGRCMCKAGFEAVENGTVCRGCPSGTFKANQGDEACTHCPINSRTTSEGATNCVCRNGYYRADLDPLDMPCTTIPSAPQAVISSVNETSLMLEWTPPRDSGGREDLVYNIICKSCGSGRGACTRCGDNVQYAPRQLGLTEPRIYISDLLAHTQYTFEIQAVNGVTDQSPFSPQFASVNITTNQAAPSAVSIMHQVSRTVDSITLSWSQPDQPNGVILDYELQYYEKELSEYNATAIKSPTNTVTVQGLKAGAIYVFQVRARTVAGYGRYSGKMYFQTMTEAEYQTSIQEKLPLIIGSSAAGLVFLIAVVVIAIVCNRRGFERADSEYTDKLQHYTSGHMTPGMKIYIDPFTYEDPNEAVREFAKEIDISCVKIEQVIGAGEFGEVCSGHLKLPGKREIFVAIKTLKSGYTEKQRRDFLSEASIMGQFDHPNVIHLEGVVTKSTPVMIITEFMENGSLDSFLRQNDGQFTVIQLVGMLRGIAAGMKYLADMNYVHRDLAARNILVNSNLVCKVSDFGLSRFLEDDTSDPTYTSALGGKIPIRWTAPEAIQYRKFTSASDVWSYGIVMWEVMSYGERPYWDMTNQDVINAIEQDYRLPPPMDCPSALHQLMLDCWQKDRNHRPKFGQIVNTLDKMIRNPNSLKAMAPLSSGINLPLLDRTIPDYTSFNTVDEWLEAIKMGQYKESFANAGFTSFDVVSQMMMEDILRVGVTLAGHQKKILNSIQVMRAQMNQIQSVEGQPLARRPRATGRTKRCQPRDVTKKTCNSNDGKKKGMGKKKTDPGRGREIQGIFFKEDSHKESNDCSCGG

EPHB1 = EPHB1 (UniProt P54762); experiment: as above
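Throughout, for SH2 binding enrichment of the phosphorylated peptide, bacterial display: peptide library displayed on the E. coli surface as eCPX fusions, selected cells deep-sequenced, score is each peptide's frequency after selection divided by its frequency in the input.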
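Throughout, for phosphorylation enrichment, bacterial display: 11-residue human phosphosite peptides and single-mutation variants displayed on the E. coli surface, counted by deep sequencing, each peptide's frequency after selection divided by its frequency in the unselected input library; frequency after pTyr selection over input frequency; kinase dosed for 20-30% of maximal phosphorylation in three min.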

Sequence	SH2 binding enrichment (c-Src SH2)	SH2 binding enrichment (Grb2 SH2)	SH2 binding enrichment (SHP2-C SH2)	phosphorylation enrichment (Jak2)	phosphorylation enrichment (Fer (mouse))	phosphorylation enrichment (Hck)	phosphorylation enrichment (FGFR1)	phosphorylation enrichment (Fyn)	phosphorylation enrichment (c-Abl (mouse))	phosphorylation enrichment (FGFR3)	phosphorylation enrichment (c-Src)	phosphorylation enrichment (AncSZ)	phosphorylation enrichment (MERTK)	phosphorylation enrichment (Fes)	phosphorylation enrichment (EPHB2)	phosphorylation enrichment (EPHB1)
DLGIQYKALKP [CTNNA1_Y177]	0.361	0.897	0.594	0.725	0.498	0.485	0.507	0.388	0.573	0.631	0.449	0.754	0.453	0.853	0.442	0.568
KTDVHYRSLGG [DYSF_Y1858]	0.472	0.74	0.649	0.48	0.335	0.371	0.334	0.364	0.426	0.511	0.359	0.468	0.377	0.515	0.371	0.329
VDTGVYAVPPP [BCAR1_Y410_S407T]	0.556	0.775	0.602	0.827	5.77	7.67	1.28	8.6	20.7	1.14	4.89	2.39	9.22	0.799	20.2	8.36
WAFNLYDINKY [KCNIP3_Y174_D179Y]	0.706	0.906	0.803	0.953	3.29	3.09	0.553	1.83	0.709	0.725	1.57	0.987	2.65	1.24	3.92	2.29
DKATEYIQYMR [MAX_Y70]	0.469	0.938	1.4	0.625	0.394	0.504	0.479	0.624	0.499	0.572	0.486	0.852	0.4	0.622	0.451	0.448
RYLTRYIYNRE [HLA-DQB1_Y62_V59L]	0.627	1.11	0.763	1.92	0.813	0.621	0.564	1.11	1.07	0.772	1.57	1.91	3.87	1.32	0.773	4.73
RIVEIYSRRLQ [GCH1_Y175]	0.617	0.789	0.879	0.794	0.556	1.02	0.777	0.921	0.747	0.96	0.803	0.942	0.678	0.976	0.92	0.645

More lines, main results first:

SH2 binding enrichment (c-Src SH2)	SH2 binding enrichment (Grb2 SH2)	SH2 binding enrichment (SHP2-C SH2)	Sequence	phosphorylation enrichment (Jak2)	phosphorylation enrichment (Fer (mouse))	phosphorylation enrichment (Hck)	phosphorylation enrichment (FGFR1)	phosphorylation enrichment (Fyn)	phosphorylation enrichment (c-Abl (mouse))	phosphorylation enrichment (FGFR3)	phosphorylation enrichment (c-Src)	phosphorylation enrichment (AncSZ)	phosphorylation enrichment (MERTK)	phosphorylation enrichment (Fes)	phosphorylation enrichment (EPHB2)	phosphorylation enrichment (EPHB1)
0.611	0.992	0.836	PVGVLYEVKVF [PTS_Y128_K129E_YF]	2.08	2.05	0.986	1.02	0.849	1.29	1.41	0.89	2.17	1.16	2.67	0.91	1.5
0.608	0.786	0.626	SVMVPYEPPEV [TP53_Y220_V217M]	1.09	0.56	0.496	0.52	0.481	0.804	0.662	0.465	1.04	0.433	1.15	0.54	0.515
1.31	0.757	0.657	HNLYSYPTKYE [MYO3A_Y1396_H1400Y]	0.606	17	8.88	0.699	5.43	2.34	0.683	2.62	2.65	14.8	0.958	16.7	10.6
0.341	0.769	0.472	RSDSTYRMSAT [NHS_Y1532_S1531T]	0.709	0.587	0.436	0.558	0.528	0.697	0.637	0.632	0.587	0.335	0.581	0.556	0.411
0.783	1.22	1.13	VASMFYTLVIP [OR8K3_Y277_I275M]	1.51	3.5	0.667	2.79	0.661	0.691	2.37	1.38	1.96	5.7	1.14	0.82	1.13
0.918	2.27	1.02	RPFVFYFSFLL [PTEN_Y177_R173P_YF]	1.55	0.587	0.867	0.589	0.76	1.29	0.835	0.982	1.29	0.641	1.29	0.483	0.838
1.79	0.766	0.588	KNNDGYTDYAE [MCFD2_Y135_I136T]	0.831	0.381	0.461	0.515	0.463	0.85	0.597	0.383	0.941	0.458	1	0.57	0.475
